Measured values reported in patent US20190040130A1 (Alector, published 2019).

T1: human TREM2 expressed on cells (human, UniProt Q9NZC2 19-230)
T1 construct: also called huT2 BW; cell expressed TREM2
T1 sequence: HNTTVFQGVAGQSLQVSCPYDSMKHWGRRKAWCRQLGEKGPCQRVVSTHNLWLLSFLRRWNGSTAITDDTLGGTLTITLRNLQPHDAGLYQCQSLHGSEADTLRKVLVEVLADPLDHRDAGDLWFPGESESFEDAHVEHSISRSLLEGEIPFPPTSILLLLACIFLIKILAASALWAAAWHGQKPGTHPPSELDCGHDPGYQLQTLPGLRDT


Each binder was assayed against T1, human TREM2 expressed on cells (assay: FACS, BW cells).
Procedure: To examine cell binding of anti-TREM2 antibodies, recombinant, human TREM2-expressing BW5147. G.1.4 cells (ATCC® TIB48™) were established by stably expressing either mouse TREM2 or human TREM2 together with Dap12 using viral infection. Cells were harvested by scraping, washed in PBS, counted and plated on 96-well U bottom plates at 1×10⁵ cells/well. The plates were spun at 1,400 rpm for 3 minutes and primary anti-TREM2 or control antibodies were added in FACS buffer (PBS+2% FBS) and incubated on ice for one hour. Cells were subsequently centrifuged as before and washed thrice with FACS buffer. Cells were then incubated with anti-human PE conjugated secondary antibody (BD Biosciences) in FACS buffer for 30 minutes on ice. Cells were again washed thrice with FACS buffer and analyzed on a BD FACS Canto. Binding was measured as mean fluorescence intensity in the […].

Row | Binder | Cell binding (FOB)
1 | AL2p-h77 (antibody, IgG1, V domains shown, IgG1; Fab in monovalent BLI) VH: QVQLVQSGAEVKKPGASVKVSCKASGYAFSSSWMNWVRQAPGQRLEWIGRIYPGDGDTNYAQKFQGRVTITADTSASTAYMELSSLRSEDTAVYYCARLLRNQPGESYAMDYWGQGTLVTVSS VL: DVVMTQSPDSLAVSLGERATINCRSSQSLVHSNGYTYLHWYQQKPGQSPKLLIYKVSNRFSGVPDRFSGSGSGTDFTLTISSLQAEDVAVYYCSQSTRVPYTFGGGTKVEIK | 83 fold over background
2 | AL2p-h50 (antibody, IgG1, V domains shown, IgG1; Fab in monovalent BLI) VH: QVQLVQSGAEVKKPGSSVKVSCKASGYAFSSSWMNWVRQAPGQGLEWMGRIYPGDGDTNYAQKFQGRVTITADESTSTAYMELSSLRSEDTAVYYCARLLRNQPGESYAMDYWGQGTLVTVSS VL: DVVMTQTPLSLSVTPGQPASISCRSSQSLVHSNGYTYLHWYLQKPGQSPQLLIYKVSNRFSGVPDRFSGSGSGTDFTLKISRVEAEDVGVYYCSQSTRVPYTFGQGTKLEIK | 78 fold over background
3 | AL2p-h21 (antibody, IgG1, V domains shown, IgG1; Fab in monovalent BLI) VH: QVQLVQSGAEVKKPGASVKVSCKASGYAFSSSWMNWVRQAPGQGLEWMGRIYPGDGDTNYAQKFQGRVTMTRDTSTSTVYMELSSLRSEDTAVYYCARLLRNQPGESYAMDYWGQGTLVTVSS VL: DVVMTQTPLSLSVTPGQPASISCRSSQSLVHSNGYTYLHWYLQKPGQSPQLLIYKVSNRFSGVPDRFSGSGSGTDFTLKISRVEAEDLGVYFCSQSTRVPYTFGQGTKLEIK | 76 fold over background
4 | AL2p-h34 (antibody, IgG1, V domains shown, IgG1; Fab in monovalent BLI) VH: QVQLVQSGAEVKKPGSSVKVSCKASGYAFSSSWMNWVRQAPGQGLEWIGRIYPGDGDTNYAQKFQGRATITADTSTSTAYMELSSLRSEDTAVYFCARLLRNQPGESYAMDYWGQGTLVTVSS VL: DVVMTQTPLSLSVTPGQPASISCRSSQSLVHSNGYTYLHWYLQKPGQSPQLLIYKVSNRFSGVPDRFSGSGSGTDFTLKISRVEAEDLGVYFCSQSTRVPYTFGQGTKLEIK | 84 fold over background
5 | AL2p-h59 (antibody, IgG1, V domains shown, IgG1; Fab in monovalent BLI) VH: QVQLVQSGAEVKKPGASVKVSCKASGYAFSSSWMNWVRQAPGQRLEWMGRIYPGDGDTNYAQKFQGRVTITRDTSASTAYMELSSLRSEDTAVYYCARLLRNQPGESYAMDYWGQGTLVTVSS VL: DIVMTQSPLSLPVTPGEPASISCRSSQSLVHSNGYTYLHWYLQKPGQSPQLLIYKVSNRFSGVPDRFSGSGSGTDFTLKISRVEAEDVGVYYCSQSTRVPYTFGGGTKVEIK | 69 fold over background
6 | AL2p-h44 (antibody, IgG1, V domains shown, IgG1; Fab in monovalent BLI) VH: QVQLVQSGAEVKKPGASLKVSCKASGYAFSSSWMNWVRQAPGQRLEWIGRIYPGDGDTNYAQKFQGRATLTADTSASTAYMELSSLRSEDTAVYFCARLLRNQPGESYAMDYWGQGTLVTVSS VL: DVVMTQTPLSLSVTPGQPASISCRSSQSLVHSNGYTYLHWYLQKPGQSPQLLIYKVSNRFSGVPDRFSGSGSGTDFTLKISRVEAEDVGVYYCSQSTRVPYTFGQGTKLEIK | 80 fold over background
7 | AL2p-h19 (antibody, IgG1, V domains shown, IgG1; Fab in monovalent BLI) VH: QVQLVQSGAEVKKPGSSVKVSCKASGYAFSSSWMNWVRQAPGQGLEWMGRIYPGDGDTNYAQKFQGRATITADTSTSTAYMELSSLRSEDTAVYYCARLLRNQPGESYAMDYWGQGTLVTVSS VL: DIVMTQTPLSLSVTPGQPASISCRSSQSLVHSNGYTYLHWYLQKPGQSPQLLIYKVSNRFSGVPDRFSGSGSGTDFTLKISRVEAEDVGVYYCSQSTRVPYTFGQGTKLEIK | 87 fold over background
8 | AL2p-h26 (antibody, IgG1, V domains shown, IgG1; Fab in monovalent BLI) VH: QVQLVQSGAEVKKPGASVKVSCKASGYAFSSSWMNWVRQAPGQRLEWIGRIYPGDGDTNYAQKFQGRVTITADTSASTAYMELSSLRSEDTAVYYCARLLRNQPGESYAMDYWGQGTLVTVSS VL: DVVMTQTPLSLSVTPGQPASISCRSSQSLVHSNGYTYLHWYLQKPGQSPQLLIYKVSNRFSGVPDRFSGSGSGTDFTLKISRVEAEDLGVYFCSQSTRVPYTFGQGTKLEIK | 78 fold over background
9 | AL2p-h42 (antibody, IgG1, V domains shown, IgG1; Fab in monovalent BLI) VH: QVQLVQSGAEVKKPGASVKVSCKASGYAFSSSWMNWVRQAPGQRLEWMGRIYPGDGDTNYAQKFQGRVTITRDTSASTAYMELSSLRSEDTAVYYCARLLRNQPGESYAMDYWGQGTLVTVSS VL: DVVMTQTPLSLSVTPGQPASISCRSSQSLVHSNGYTYLHWYLQKPGQSPQLLIYKVSNRFSGVPDRFSGSGSGTDFTLKISRVEAEDVGVYYCSQSTRVPYTFGQGTKLEIK | 79 fold over background
10 | AL2p-h23 (antibody, IgG1, V domains shown, IgG1; Fab in monovalent BLI) VH: QVQLVQSGAEVKKPGASLKISCKASGYAFSSSWMNWVRQAPGQGLEWIGRIYPGDGDTNYAQKFQGRATLTADTSTSTAYMELSSLRSEDTAVYYCARLLRNQPGESYAMDYWGQGALVTVSS VL: DVVMTQTPLSLSVTPGQPASISCRSSQSLVHSNGYTYLHWYLQKPGQSPQLLIYKVSNRFSGVPDRFSGSGSGTDFTLKISRVEAEDLGVYFCSQSTRVPYTFGQGTKLEIK | 76 fold over background
11 | AL2p-h35 (antibody, IgG1, V domains shown, IgG1; Fab in monovalent BLI) VH: QVQLVQSGAEVKKPGSSVKVSCKASGYAFSSSWMNWVRQAPGQGLEWMGRIYPGDGDTNYAQKFQGRATITADTSTSTAYMELSSLRSEDTAVYYCARLLRNQPGESYAMDYWGQGTLVTVSS VL: DVVMTQTPLSLSVTPGQPASISCRSSQSLVHSNGYTYLHWYLQKPGQSPQLLIYKVSNRFSGVPDRFSGSGSGTDFTLKISRVEAEDLGVYFCSQSTRVPYTFGQGTKLEIK | 69 fold over background
12 | AL2p-h47 (antibody, IgG1, V domains shown, IgG1; Fab in monovalent BLI) VH: QVQLVQSGAEVKKPGASVKVSCKASGYAFSSSWMNWVRQAPGQGLEWMGRIYPGDGDTNYNGEFRVRVTMTRDTSTSTVYMELSSLRSEDTAVYYCARLLRNQPGESYAMDYWGQGTLVTVSS VL: DVVMTQTPLSLSVTPGQPASISCRSSQSLVHSNGYTYLHWYLQKPGQSPQLLIYKVSNRFSGVPDRFSGSGSGTDFTLKISRVEAEDVGVYYCSQSTRVPYTFGQGTKLEIK | 93 fold over background
13 | AL2p-h22 (antibody, IgG1, V domains shown, IgG1; Fab in monovalent BLI) VH: QVQLVQSGAEVKKPGASVKVSCKASGYAFSSSWMNWVRQAPGQGLEWIGRIYPGDGDTNYAQKFQGRVTMTADTSTSTVYMELSSLRSEDTAVYYCARLLRNQPGESYAMDYWGQGTLVTVSS VL: DVVMTQTPLSLSVTPGQPASISCRSSQSLVHSNGYTYLHWYLQKPGQSPQLLIYKVSNRFSGVPDRFSGSGSGTDFTLKISRVEAEDLGVYFCSQSTRVPYTFGQGTKLEIK | 61 fold over background
14 | AL2p-h33 (antibody, IgG1, V domains shown, IgG1; Fab in monovalent BLI) VH: QVQLVQSGAEVKKPGSSVKVSCKASGYAFSSSWMNWVRQAPGQGLEWIGRIYPGDGDTNYAQKFQGRATLTADTSTTTAYMELSSLRSEDTAVYFCARLLRNQPGESYAMDYWGQGTLVTVSS VL: DVVMTQTPLSLSVTPGQPASISCRSSQSLVHSNGYTYLHWYLQKPGQSPQLLIYKVSNRFSGVPDRFSGSGSGTDFTLKISRVEAEDLGVYFCSQSTRVPYTFGQGTKLEIK | 74 fold over background
15 | AL2p-h30 (antibody, IgG1, V domains shown, IgG1; Fab in monovalent BLI) VH: QVQLVQSGAEVKKPGASVKVSCKASGYAFSSSWMNWVRQAPGQGLEWMGRIYPGDGDTNYAQKFQGRVTMTADTSTSTAYMELSSLRSEDTAVYYCARLLRNQPGESYAMDYWGQGTLVTVSS VL: DVVMTQTPLSLSVTPGQPASISCRSSQSLVHSNGYTYLHWYLQKPGQSPQLLIYKVSNRFSGVPDRFSGSGSGTDFTLKISRVEAEDLGVYFCSQSTRVPYTFGQGTKLEIK | 88 fold over background
